This note sets out measurements from PMC5830440.

Some results are limits rather than exact numbers.

The term Kd denotes the free concentration of one partner at which half of the binding sites on the other are occupied at equilibrium, for simple one-to-one binding. The koff is a measure of how fast the partners let go of each other. A low value points to slow dissociation.

The experiment deals with BG505 SOSIP.664 Env trimer (HIV-1 (BG505)). Put plainly: BLI; biotinylated BG505 SOSIP.664 trimer (10 µg/mL) captured on Streptavidin biosensors; ScFv in 2-fold dilution series starting at 500 nM; 1:1 binding model, global fit; KD = koff/kon. A general note: Biolayer interferometry detects binding as a change in optical thickness at a sensor tip.

The substance VRC01 ScFv (parental ScFv) came in with a Kd of under 1 pM and a koff of under 1e-07 s⁻¹.
